Literature values in publication PMC10910070.

System: gliadin (wheat, commercial mixture) (wheat)
Experiment: not stated (cited value)
Conditions: 5 mM Tris pH 7.4, 25 C; 300 uL AuNPs + 200 uL 40 nM aptamer + 200 uL gliadin, then 200 uL NaCl (40 mM in Methods, 37 mM in Fig. 2 legend), 900 uL final

| Sequence | Kd [µM] |
| --- | --- |
| CCAGTCTCCCGTTTACCGCGCCTACACATGTCTGAATGCC [Apt-1] | 0.186 |
| CTACACATGTCTGAATGCC [Apt-2] | 0.148 |
